# Residue numbers refer to the chain shown, from its start. Names may count otherwise.
# B1: I363S: bx9 SEQ ID NO:1 mutant (protein)
# chain: MASSRTGAGAGGRVVVFPFPFQGHFNPVMRLARALHARGLAITVFHSGALDPADYPADYRFVPVTVEADPKLLASEDIAAIVTTLNASCDAPFRARLSALLAAEGRDSVRCVFTDVSWNAVLTASSDLGVPALGMMTASAASLRDYMAYRTLIDKGYLPVKEERKEDPVPELPPYLVKDLLRVDTSDLEEFAELLARTVTAARRASGLIFNTFPLIETDTLAEIHKALSVPVFAVAPLNKLVPTATASLHGVVQADRGCLQWLDTQQPGSVLYVSFGSMAAMDPHEFVELAWGLADSKRPFVWVVRPNLIRGFESGALPDGVEDEVRGRGIVVAWAPQEEVLAHPAVGGFLTHNGWNSTVEASSEGVPMVCCPRHGDQFGNMRYVCDVWKVGTELVGEQLERGQVKAAIDRLFGTKEGEEIKERMKEFKIAAAKGIGIGVDVDETASPRTDLTDLVDLIKSF
# modifications: Zea mays
# B2: C372I: bx9 SEQ ID NO:1 mutant (protein)
# chain: B1 chain with S363I, C372I
# modifications: Zea mays
# B3: M135T: bx9 SEQ ID NO:1 mutant (protein)
# chain: B1 chain with M135T, S363I
# modifications: Zea mays
# B4: I153V: bx9 SEQ ID NO:1 mutant (protein)
# chain: B1 chain with I153V, S363I
# modifications: Zea mays
# B5: I363W: bx9 SEQ ID NO:1 mutant (protein)
# chain: B1 chain with S363W
# modifications: Zea mays
# B6: A79N: bx9 SEQ ID NO:1 mutant (protein)
# chain: B1 chain with A79N, S363I
# modifications: Zea mays
# B7: I153T: bx9 SEQ ID NO:1 mutant (protein)
# chain: B1 chain with I153T, S363I
# modifications: Zea mays
# B8: A79S: bx9 SEQ ID NO:1 mutant (protein)
# chain: B1 chain with A79S, S363I
# modifications: Zea mays
# B9: V370M: bx9 SEQ ID NO:1 mutant (protein)
# chain: B1 chain with S363I, V370M
# modifications: Zea mays
# B10: V370L: bx9 SEQ ID NO:1 mutant (protein)
# chain: B1 chain with S363I, V370L
# modifications: Zea mays
# B11: A79E: bx9 SEQ ID NO:1 mutant (protein)
# chain: B1 chain with A79E, S363I
# modifications: Zea mays
# B12: E76M: bx9 SEQ ID NO:1 mutant (protein)
# chain: B1 chain with E76M, S363I
# modifications: Zea mays
# B13: A79G: bx9 SEQ ID NO:1 mutant (protein)
# chain: B1 chain with A79G, S363I
# modifications: Zea mays
# B14: V370I: bx9 SEQ ID NO:1 mutant (protein)
# chain: B1 chain with S363I, V370I
# modifications: Zea mays
# B15: V370C: bx9 SEQ ID NO:1 mutant (protein)
# chain: B1 chain with S363I, V370C
# modifications: Zea mays
# B16: I363F: bx9 SEQ ID NO:1 mutant (protein)
# chain: B1 chain with S363F
# modifications: Zea mays
# B17: M135C: bx9 SEQ ID NO:1 mutant (protein)
# chain: B1 chain with M135C, S363I
# modifications: Zea mays
# B18: Q22H: bx9 SEQ ID NO:1 mutant (protein)
# chain: B1 chain with Q22H, S363I
# modifications: Zea mays
# B19: I153C: bx9 SEQ ID NO:1 mutant (protein)
# chain: B1 chain with I153C, S363I
# modifications: Zea mays
# B20: G376C: bx9 SEQ ID NO:1 mutant (protein)
# chain: B1 chain with S363I, G376C
# modifications: Zea mays
# B21: V370A: bx9 SEQ ID NO:1 mutant (protein)
# chain: B1 chain with S363I, V370A
# modifications: Zea mays
# B22: I153L: bx9 SEQ ID NO:1 mutant (protein)
# chain: B1 chain with I153L, S363I
# modifications: Zea mays
# B23: Q22M: bx9 SEQ ID NO:1 mutant (protein)
# chain: B1 chain with Q22M, S363I
# modifications: Zea mays
# B24: V370T: bx9 SEQ ID NO:1 mutant (protein)
# chain: B1 chain with S363I, V370T
# modifications: Zea mays
# B25: A79Q: bx9 SEQ ID NO:1 mutant (protein)
# chain: B1 chain with A79Q, S363I
# modifications: Zea mays
# B26: I153K: bx9 SEQ ID NO:1 mutant (protein)
# chain: B1 chain with I153K, S363I
# modifications: Zea mays
# B27: V116L: bx9 SEQ ID NO:1 mutant (protein)
# chain: B1 chain with V116L, S363I
# modifications: Zea mays
# B28: I363T: bx9 SEQ ID NO:1 mutant (protein)
# chain: B1 chain with S363T
# modifications: Zea mays
# B29: F21Y: bx9 SEQ ID NO:1 mutant (protein)
# chain: B1 chain with F21Y, S363I
# modifications: Zea mays
# B30: V116I: bx9 SEQ ID NO:1 mutant (protein)
# chain: B1 chain with V116I, S363I
# modifications: Zea mays
# B31: Q22P: bx9 SEQ ID NO:1 mutant (protein)
# chain: B1 chain with Q22P, S363I
# modifications: Zea mays
# B32: M135L: bx9 SEQ ID NO:1 mutant (protein)
# chain: B1 chain with M135L, S363I
# modifications: Zea mays
# Experiment: UDP luminescence plate assay of E. coli extracts, saturation mutants of SEQ ID NO: 1, herbicide V
# Type: biochemical, Zea mays
# Conditions: improvement factor relative to w/t bx9 = 1.0, rounded to nearest 0.5; extract activity basis; compound V
# Experimental: Competent BL21 (DE3) cells are transformed as in the foregoing examples and, following seed culturing, grown and autoinduced in plates in a 0.5-1 ml volume of autoinduction medium containing 50 ug/ml kanamycin. Plates are incubated at 37° C. and shaken at 900 rpm. Growth is monitored by taking 20 ul aliquots, diluting 10 fold into flat-bottomed 96 well microtiter plates and reading OD600n at t=0, 1, 2, 2½ and 3 hours if necessary. At a (corrected) OD600 nm˜0.2, plates are transferred to 20° C. and shaken overnight at 900 rpm in a Jencons VWR plate incubator. After ˜18-20 h the final OD600 readings are recorded and the plates centrifuged at 4600 rpm (bench top centrifuge) for 10 min at 4° C. The supernatant is discarded and the pellets then washed with 0.25 ml PBS by repeat centrifugation and removal of supernatant before freezing cell pellets at −80° C. To prepare extracts, plates are allowed to thaw for 30 min and then pellets are resuspended in 0.25 ml of a suitable lysis buffer (for example—50 mM Tris HCL buffer at pH 8.0, 5% glycerol containing 50 mM NaCl and lysonase) mixed, incubated at room temperature for a sufficient time for lysis to be near complete and then centrifuged to remove cell debris and 100 ul of supernatant extract removed to a 96 well V-shaped well plate and stored on ice prior to assay.
# Optionally plate assays are stopped with brief heating to 95 C before returning to ice and addition of UDP-Glo detection reagent followed by incubation at lab temperature. […] In addition a UDP standard curve is run alongside each set of plate tests.
# Making use of the ELISA assay it is then possible to calculate a specific activity (e.g. in Relative Luminescence Units (RLU)/min/ug bx protein) based upon the amount of each mutant bx9 polypeptide expressed in each well. […] The specific activity of the various test mutant extracts on the same plate are then expressed as a fraction of the specific activity of the w/t bx9 and thus the ‘improvement factor’ versus the w/t expressed as a decimal where, for example, ‘0.5’ means half the specific activity of the wild type and 2.0 means twice the specific activity of the wild type. However, as will be readily apparent to the skilled man, particularly in cases where the UDP assay signal was low (with poor signal to noise versus the background) and/or the ELISA measurement of bx protein also low such a method is prone to generate spurious high specific activity numbers and uncertain numbers.
Molecule,Preferred amino acid substitutions and (IF) based on RLU/min/ul,Most Preferred amino acid substitutions and (IF) based on RLU/min/ul
B1,"S,T,F,W(1.5)",–
B2,I(1.0),–
B3,"T,C,L(1.0)",–
B4,"T,C,K,V,L,M,Y(1.0);",–
B5,"S,T,F,W(1.5)",–
B6,1.0,–
B7,"T,C,K,V,L,M,Y(1.0);",–
B8,1.0,–
B9,"T,C,L,M(1.0)",–
B10,"T,C,L,M(1.0)",–
B11,1.5,–
B12,M(1.0),–
B13,1.5,–
B14,"A,I(1.5)",–
B15,"T,C,L,M(1.0)",–
B16,"S,T,F,W(1.5)",–

Molecule,Preferred amino acid substitutions and (IF) based on RLU/min/ul,Most Preferred amino acid substitutions and (IF) based on RLU/min/ul
B17,"T,C,L(1.0)",–
B18,"H,P,M(1.0)",–
B19,"T,C,K,V,L,M,Y(1.0);",–
B20,"C,M(1.0)",–
B21,"A,I(1.5)",–
B22,"T,C,K,V,L,M,Y(1.0);",–
B23,"H,P,M(1.0)",–
B24,"T,C,L,M(1.0)",–
B25,1.0,–
B26,"T,C,K,V,L,M,Y(1.0);",–
B27,"L,I(1.0)",–
B28,"S,T,F,W(1.5)",–
B29,–,Y(2.0)
B30,"L,I(1.0)",–
B31,"H,P,M(1.0)",–
B32,"T,C,L(1.0)",–
